Experimental findings from the supplement of paper PMC10567573 are described below.

The series in a line: protein stability index of a GFP-peptide fusion (GPS, HEK-293T) (PSI 1-6); higher = more stable.
Setting [1] is: treatment: DMSO, c terminus: a fixed tail appended.
[2] abbreviates: treatment: MLN4924 1 uM, 8 h, c terminus: a fixed tail appended.
[3] abbreviates: treatment: DMSO, c terminus: native.
Where [4] appears, read: treatment: MLN4924 1 uM, 8 h, c terminus: native.

± gives the standard deviation.
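Further: 24-mer peptide tiles fused after GFP, lentivirally expressed, FACS-sorted into six equal bins by GFP/DsRed ratio, decoded by Illumina sequencing, PSI is the read-weighted mean bin number.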

Regarding VAGEFSEPVTLETPAFMFRLDAST [FSD1], the protein stability index was 3.1 ± 0.27 under setting [1] and 3.16 ± 0.19 under setting [2].
The matching figures for VAGVLPDIEQFFNIGDSSSGLIQT [SPNS1]: 3.16 ± 0.25 and 3.32 ± 0.43.
Consider VAIFGPPNTLYEGGYFKAHIKFPI [UBE2R2], for which the protein stability index was 3.24 ± 1 under setting [1] and 2.95 ± 0.97 under setting [2].
The like results for VAQTSLEEFNVLEMEVMRRQLYAV [FATE1] were, in that order, 2.31 ± 0.37 and 2.21 ± 0.44.
The matching figures for VAVDSNLRVRELQRKVDGIQKAYD [CCDC89]: 3.85 ± 0.21 and 3.94 ± 0.39.
Consider VCALCPVLGAHRGHPVGLALEAAV [TRIM14], for which the protein stability index was found to be 2.57 ± 0.34 under setting [1] and 2.37 ± 0.6 under setting [2].
The like results for VCTDTDRWSLISLSNKNGKNVELK [TENT5C] were, in that order, 3.46 ± 0.27 and 3.57 ± 0.17.
On to VEAMYCYLRCIQSEVSFEGAYGNL [SMG5], for which the protein stability index was determined as 3.13 ± 0.35 under setting [1] and 3.12 ± 0.63 under setting [2].
In the case of VEMDIYTALKKWMFLQLVPSWNGS [GMCL1], the protein stability index was determined as 2.65 ± 0.092 under setting [1] and 2.66 ± 0.65 under setting [2].
Consider VEWAKYIPAFCELPLDDQVALLRA [HNF4A], for which the protein stability index reads like this: under setting [1], 2.42 ± 0.64; under setting [2], 2.44 ± 0.42.
The matching figures for VFGRLRDENGRPYSPSQYALQYAG [NFE2L1]: 2.86 ± 0.45 and 2.65 ± 0.36.
The matching figures for VFLASGAVSVMKKCRKLEDPQSSS [SLC19A2]: 2.81 ± 0.043 and 2.98 ± 0.15.
The like results for VFPIKHYQDKIRPYIQLPSHSNIT [TRIB1] were, in that order, 2.5 ± 0.22 and 2.62 ± 0.22.
As for VFSTMAGLEEADAEVSVISEADPQ [FBF1], the protein stability index is 5.18 ± 0.36 under setting [1] and 5.26 ± 0.25 under setting [2].
In turn, VGEVLKDIETACKLLNITADPMDW [SPDEF] gave a protein stability index under setting [1] of 2.71 ± 0.17 and a protein stability index under setting [2] of 2.51 ± 0.27.
Regarding VGKTRLICARACNATLTQYQLLAT [RHOBTB2], the protein stability index turned out to be 2.28 ± 0.34 under setting [1] and 2.17 ± 0.31 under setting [2].
The like results for VGLVTNQLSHIKAKIRAKIPGTGA [RTN2] were, in that order, 2.79 ± 0.16 and 2.9 ± 0.11.
VGSGYRMSLVKRRFATGMYLVSC [FCHO1] came in with a protein stability index under setting [3] of 2.89 ± 0.34 and a protein stability index under setting [4] of 3.03 ± 0.4.
Regarding VHHLPLSTEKVVQETVLVEERRVV [EPB41L3], the protein stability index reads like this: under setting [1], 4.3 ± 0.14; under setting [2], 4.43 ± 0.27.
VHVIGVEEPSVGASMLFDIREST [ZNF8] yielded a protein stability index under setting [3] of 2.3 ± 0.27 and a protein stability index under setting [4] of 2.38 ± 0.17.
In turn, VIAINYNEKIYELRVMETKPDKAV [UFD1] showed a protein stability index under setting [1] of 1.89 ± 0.27 and a protein stability index under setting [2] of 2.39 ± 0.24.
Turning to VIRLKQEQHVHNEKSVLKEVSHPF [PRKX], the protein stability index under setting [1] was 3.36 ± 0.062 and the protein stability index under setting [2] is 3.62 ± 0.36.
The like results for VIRWIAHDTEIRKVHMKDVMSALW [GAN] were, in that order, 2.38 ± 0.63 and 2.08 ± 0.2.
The like results for VLEYRRTNFEGPPRLKEDQPWMVI [FSD1] were, in that order, 2.12 ± 0.44 and 2.35 ± 0.39.
The like results for VLLMKDRETNKSRGFAFVTFESPA [RBMX] were, in that order, 2.06 ± 0.47 and 2.2 ± 0.41.
With VLRREISELRTKVQEQQKQLQDQD [FBXO28], the protein stability index by setting is: under setting [1], 4.73 ± 0.17; under setting [2], 4.66 ± 0.23.
Turning to VLRTWRTNLPKGACALLLTSVDHD [DLC1], the protein stability index stood at 2.26 ± 0.66 under setting [1] and 2.44 ± 0.39 under setting [2].
The like results for VLVILISIVIFCLETLPEFRDEKD [KCNA3] were, in that order, 2.54 ± 0.81 and 2.25 ± 0.88.
The like results for VPAAGGPAPKRGYSSEMKTEDELR [AUH] were, in that order, 5.53 ± 0.68 and 5.9 ± 0.071.
The matching figures for VPECRLAEDLGNLWENTRFTDCSF [SPOPL]: 2.74 ± 0.34 and 3.21 ± 0.44.
Consider VPWLNLKKQDENEGIKVEDLLFIV [CEP70], for which the protein stability index is, setting by setting: under setting [1], 1.97 ± 0.42; under setting [2], 2.26 ± 0.22.
The like results for VQIKTWFQNRRMKHKRQMQDPQLH [VENTX] were, in that order, 2.55 ± 0.4 and 2.52 ± 0.34.
The matching figures for VRERDRLGNEYPKLHYPELYVLKG [CDC25A]: 2.62 ± 0.21 and 2.75 ± 0.12.
The matching figures for VSNDSHTWVTVKNGSGDMIFEGNS [CPXM2]: 3.79 ± 0.16 and 4.32 ± 0.3.
Regarding VSTQRSQDHFHVFVGDLSPEITTE [TIA1], the protein stability index worked out at 3.98 ± 0.29 under setting [1] and 3.92 ± 0.41 under setting [2].
As to VVGLHAASKDPREVREARDHKEPK [EHMT1], the protein stability index under setting [1] amounted to 5.06 ± 0.13 and the protein stability index under setting [2] stood at 5.11 ± 0.052.
The like results for VVGNWQYFFPVIFSKASSSLQLVF [MAGEA3] were, in that order, 3.28 ± 0.46 and 3.11 ± 0.55.
Consider VVHQRVHSGEKPYKCSDCGKTFKQ [ZNF232], for which the protein stability index was 3.29 ± 0.25 under setting [1] and 3.43 ± 0.23 under setting [2].
The matching figures for VVPVLVFPPDLVFRADQRSGPRQL [MOSPD3]: 2.27 ± 0.38 and 2.41 ± 0.25.
Consider VWMLMLLLAVPNIILTNQSVREVT [P2RY14], for which the protein stability index turned out to be 3.27 ± 0.3 under setting [1] and 2.96 ± 0.46 under setting [2].
The like results for VYNAARDGKLQLLQKLLSGRSREE [FEM1A] were, in that order, 2.77 ± 0.15 and 2.79 ± 0.27.
The matching figures for VYSLQDFDTLATVGTGTFGRVHLV [PRKX]: 2.42 ± 0.079 and 2.42 ± 0.37.
The like results for WAQLEAPARLLLQALQAGPEGARR [FANCE] were, in that order, 2.78 ± 0.37 and 3.08 ± 0.29.
For WFFLQSELKKLKNLEGNELQRHAD [FUT8], the protein stability index by setting is: under setting [1], 2.56 ± 0.34; under setting [2], 2.71 ± 0.41.
The matching figures for WFSCQGPFDMDSCLSRHSINPYSN [DFFB]: 2.35 ± 0.24 and 2.2 ± 0.27.
The matching figures for WGEGLHQLREALKILAERVLILET [EMID1]: 2.47 ± 0.24 and 2.78 ± 0.31.
Regarding WGFRLVGGRDFSAPLTISRVHAGS [PDLIM4], the protein stability index was determined as 2.02 ± 0.24 under setting [1] and 2.17 ± 0.32 under setting [2].
The matching figures for WHPKPYCQALPYGPGYWMCCHRSQ [FBXO34]: 2.32 ± 0.37 and 2.08 ± 0.14.
The like results for WKVRAEKEACQREKELPAAVHPFH [ZBED2] were, in that order, 3.9 ± 0.18 and 3.93 ± 0.15.
As for WLFGATAVALGGVALSVVIAARN [FKBP8], the protein stability index came out at 2.51 ± 0.55 under setting [3] and 2.59 ± 0.4 under setting [4].
WNDFLMCYSSRPLLCWSVWWALST [SLC19A2]: the protein stability index is, setting by setting: under setting [1], 3.5 ± 0.3; under setting [2], 3.32 ± 0.46.
The like results for WRRSGKYVYKPVMNQTCCPQYTIR [ATE1] were, in that order, 2.03 ± 0.22 and 2.32 ± 0.32.
The like results for WSIVGMAVVKGIQSSGKVMYFSSL [SLC6A17] were, in that order, 2.94 ± 0.68 and 2.6 ± 0.78.
The matching figures for YAPPPTPAPATQMPSTPGFVGYNP [SMARCE1]: 3.01 ± 0.36 and 3.72 ± 0.32.
As to YEAIAKHNQVEAAWLEGRIRQEFD [TRIM35], the protein stability index is, setting by setting: under setting [1], 3.9 ± 0.25; under setting [2], 3.85 ± 0.18.
YEKKQTLGQNDTGFSCDGTANTFR [BTBD1] came in with a protein stability index under setting [1] of 4.23 ± 0.3 and a protein stability index under setting [2] of 4.15 ± 0.14.
With YFHINQTLREAHFHSLQHRGRPLT [FAM104A], the protein stability index under setting [1] was determined as 2.96 ± 0.15 and the protein stability index under setting [2] came to 3.21 ± 0.31.
The like results for YFRDLPEPLMTNKLSETFLQIYQY [DLC1] were, in that order, 2.37 ± 0.32 and 2.26 ± 0.24.
The matching figures for YFYLGGARGAGPPEPLRICPLHIS [TRIM35]: 2.44 ± 0.28 and 2.04 ± 0.32.
Consider YGAVELSGAGRRKNATRETTSTLK [IRX6], for which the protein stability index reads like this: under setting [1], 4.56 ± 0.38; under setting [2], 4.52 ± 0.29.
The like results for YGPRWQEVIPYTPAMQRYVKRLHE [HMOX1] were, in that order, 3.09 ± 0.4 and 3.4 ± 0.24.
The matching figures for YGSDQQHHLGSGSGAGGTGGPAGQ [MYOZ1]: 4.93 ± 0.23 and 4.77 ± 0.28.
The matching figures for YKKIYFCHSCQLYLPSTEFSVSST [IQUB]: 2.39 ± 0.23 and 2.08 ± 0.22.
With YKSFSKEQQTMDNLEKQLICPICL [TRIM55], the protein stability index under setting [1] worked out at 2.72 ± 0.38 and the protein stability index under setting [2] was determined as 2.77 ± 0.8.
In the case of YKVNTPMLQSFINYCLLFLIYTVM [SLC35F2], the protein stability index runs as follows: under setting [1], 2.35 ± 0.8; under setting [2], 2.44 ± 0.38.
The like results for YLIRVDGKGSIKELFPTGKQLEPL [VPS39] were, in that order, 2.49 ± 0.23 and 2.21 ± 0.23.
The matching figures for YLLHGLECVVAMHQAQLISKIPHI [EIF5]: 3.37 ± 0.11 and 3 ± 0.25.
The matching figures for YLPTRGGTTMASGGRFRCPSCRHE [TRIM55]: 2.69 ± 0.57 and 3.42 ± 0.43.
On to YMVQDQHECILPFVQVKGNFARLQ [M1AP], for which the protein stability index by setting is: under setting [1], 2.56 ± 0.37; under setting [2], 2.55 ± 0.42.
YPSLYYPEMYILKGGYKEFFPQHP [CDC25B]: the protein stability index is, setting by setting: under setting [1], 1.78 ± 0.2; under setting [2], 2.12 ± 0.43.
The matching figures for YQCPDQMARNPAAIDMFIIGATFT [FBXO3]: 3.02 ± 0.48 and 2.51 ± 0.77.
The like results for YRLTEHERAHKGEKPYGCSECGKA [ZNF649] were, in that order, 4.55 ± 0.38 and 4.85 ± 0.36.
